Experimental data published in a protein production outcome set (Wang et al. 2014).

Test: label from the status in PepcDB records

Sequence	protein production
MKDVIVIGAGPSGSFAAYRLAKAGFTVDILEEHREVGKPVECTGLVSQRVLKYVRTKSIAGTVRGANIFFPNGKSVHIEKDDPTIVLFRDAFDKDVAAMAIGAGSGIRINARALSVTEHDDHVTVRYRENGSIKEEDARIVIGADGINSVVRRDVYGMRQKHVVSTLQYDMASGIEDEDSVNVYLGSQYTHGFFGWAVPGGDIVRVGTGSYKASARPYMDNLSRRFGDNRTLGITGAGIPIRMAERLSSRRTVLVGDAGGIVKPLSGGGIYTGIFSSDVAANYVVEALESDSSEASLRKYDREIRNTIGKELKKDAMIQRIYSRISDRSFNRIYSMISNEKIIDVINRSGDIDYPSTVIIKVLLRNPGILYSMWKLEHHHHHH	failed
IKSISKDYFDYLQTESKFIPLENETIEFYSPIVDYFGDSISVNISFSGDRYKLTDHGETLWNMEQLGIDLTSNKKQKKYQLLNNIVQNYSLVIENKHINFYTNRINLSQAIHDYVLAISEISYLGILKKENIKSLFKDEVMQYFLSNRKIYPNIFPEFKVEGKSKLIHSFEAVFPGEATEYVKTIKRIDKNNAKNVLFDWNDVEIHRNKNFDSNARLNIITEQQDDISEAVSTMLSQYNVEVFSFENKKQLEEKF	failed
MEVKGFIEIMRPHNCILAGIVGILGALVAYEGIPDIKTLTLIFWVVYFGCSGGNTANDYFDYEIDKINRPNRPLPRGAMSRRAALYYALLQYAIGSILAYFLNIRAFVFATIAYFLTFLYGWKLKPLPLVGNITVAALTAATPIYGAIGVGRIGLAGYLAICAFLVNVSREIMKDIEDIEGDKALGARTLPIIIGEKKAAIIAAIFGFLTVIASFLPVKVGIGLGYAPIIIVDIIIIKASIDVLRDPKAASKGQKLLKIATFVAVISFLAGALTKGV	failed
MKELSDVILDRIDAICDEADLLFEDEKSEEAIAKYNEALTLLPEPIEEYEPSAWLISSIGDVYFFDEEYEKALAQFEHAMGCIDSEDNPYLLLRAGQCHFELGQMQDAEDTMHEAYLIEGEEIFEEEDPKYWEFLKSKITIVDLEHHHHHH	not failed
SAWALKLPLADEVIESGLVQDFDASLSGIGQELGAGAYSMSDVLALPIFKQEESSLPPDNENKILPFQYVLCAATSPAVKLHDETLTYLNQGQSYEIRMLDNRKLGELPEINGKLVKSIFRVVFHDRRLQYTEHQQLEGWRWNRPGDRILDIDIPMSVGIIDPRANPTQLNTVEFLWDPAKRTSVFIQVHCISTEFTMRKHGGEKGVPFRVQIDTFKENENGEYTEHLHSASCQIKVFKPKGADRKQKTDREKMEKRTPHEKEKYQPSYETTILTECSPWPEITYVNNSPSPGFNSSHSSFSLGEGNGSPNHQPEPPPPVTDNLLPTTTPQEAQQWLHRNRFSTFTRLFTNFSGADLLKLTRDDVIQICGPADGIRLFNALKGRMVRPRLTIYVCQESLQLREQQQQQQQQQQKHEDGDSNGTFFVYHAIYLEELTAVELTEKIAQLFSISPCQISQIYKQGPTGIHVLISDEMIQNFQEEACFILDTMKAETNDSYHIILK	failed
PSVQVPQSTILYASDGSKLGETNYGEKRYWVPLKDMNPTIVKATVAIEDQNFYDHHGFDYKRMAGAALADLKAFAKVQGASTITQQYARNLYLEHDKTWKRKWNEAFYTIRLEQNYSKDEILEGYLNTIYYGHGAYGIEAASRLYFGKHAKNLTDAEAALLAGIPKGPSGY	failed
MDWTTLFFSFRGRINRAKYWLVGLIYVAAWMVFTVLAITWLGGVDPDQLFRFAGGAILIWLIAIALGLAGTWSGLATGVKRLHDRDKSGWWILLFWFGPSLLGGSNQTMEDSPVSLVLALIGLGIAIWGFVELGCLRGTPGPNQYGPDPLEPQGTLT	failed
TDVSSWIVYPSGKVYVAAVRLERVVLTCELCRPWAEVRWTKDGEEVVESPALLLQKEDTVRRLVLPAVQLEDSGEYLCEIDDESASFTVTVTEPPVRIIY	not failed
AIAPLGEEKNGKCDGSIYVNNPHLDSMTDDILYHFNLGTSTHDLPKMFGDVKFVCVGGSPWRMKSFTEYIAKELGLVDPNAEYPNICAGTDRYAMYKVGPVLSVSHGMGIPSISIMLHELIKLLYHARCTDVTVVRIGTSGGIGLKPGTVVVTKQSVDSLFQPHLEQTILGKPVVRSTELDKELAEELLQCGKELGEFEIIIGNTMCTLDFYEGSNVFEDKCTRIAAYSFKIHVL	failed
MFKRFVLSLAFLIMAAVVSFQVIFTVPEHPQIITQTGSEITEDIRCIEFSGAKALDDNGELNLLVWNIYKQNRANWQSELELFSADKQLLLLQEASMTDSFKQWLVDGSWVSNQVSAFKALGSGAGVISIAQKQPIKACAYTSKEPWLRLPKSALYSQYRLSNGESLAVINVHAINFTVGTEEYTSQLSALETLLKQHSGPIVFAGDFNSWSEYRITAMKQALREANLREVQFSPDHRTQFITGLPLDHVFYRGLTLKNAKAPQSDASDHNPLLVSFTLND	failed
MVLGEFAPWRLWSLAGSAKDWRGSKQPRAMTDLVTNQAWTLIDNGRAADALRLTTGPVALPQASAGLLMAHAAALKALGRTDEALTFNRRAVARAPGDRFSWYNLAATLGDLALDDEAEGAARKTIALGLDVPEVRLVLGKALQGLHRYDEAEATFVRALAARPSDATVHLNLAQLRWMRSGRSDEALAPLDAAIARHPADVTLRTIRSNVLTFAGDHAGADATLEDALTRAPGDLAVRIAAARAAGAVGDRARMLAHAREAARLAPGALESQTVLCEALLAAGQADVAARTAEALVAAAPDDQYALVLRNTAWRITGDAQGDLFRDYAALVRTDRLETPEGWDSLDAFLDALRDRMLELHDLKTHPLNQSLRGGSQVPSLDRSRDPLVQAFFACAHKAVARYIEALGAGEDPIRRRRASDFAFAGGWSVRLRSEGFHADHVHPRGWISSAFYLDLPGRFDDETTRAGWLRFGRPGCLTEPALEAEHFIKPERGTLALFPSCLWHGTQPFTDADHRLTIAFDVVPR	failed
MALCLNPDCGQPNNDDANSSCATCGSPLLLRDRYRVVKAIGQGGFGATYLGQDLQLPGEPLCVIKQLLPQVQDPEIMLMARELFRREAKTLGRIGSHPQVPTLLDYFEAPEGFYLVQEYIRGKTLEQEVREQGVYSETATKQFLSELLPLLQYLHNQGVIHRDIKPANLLRRDIDRRLVLIDFGAVKDQVSQIQGGSGLTALTSFSVGTRGYAPPEQLAMRPVYSSDLYSLGVTCLFLMTGKGPQDLDYNPVTGELLWRNSVQVSDALATVLGKMLAASVRYRYQRAEQVMTALDLQPYHDSLIQGLSALPPGAPPIKPSSGRTGSGYPSPQERQAEAIRARRRDRSGNRPEQLADAQQIAAWTGGTSNTSGNNSAGRLSLNARDILATYQRGRRDFSQQPLNRIDLSESQLPSVNFQGAQLKESLFVAAQLERADFGQANLHRANLRRANLHQAYFGNADLSFANLQKADLSDAILSNANLRGTNLCGANLRGAKLTPVQLKMAKTNWWTILPDGRRGRLF	failed
MTFEEFKDRLFALAKKNGVEVQISFLETREFSLRLANGDLDQYTDAGKFNVEIKVLKDGKTGTFRTQVLENPEKCFEEALSNLQVKDSEEKEYFFEGGKEYREMETYVGRFEKLSVKEKMDMAKKAHESAAKDERVVMVPTVMYKDMVIKKIITNTLGLDVESQMDGGFLFAMAIARDANPRSGSWYELARTPEDLNPEEIGKRAAEEAISLIGSKTIPSGKYPVLMRNTALLDLMEMFIPMISAENVQKNLSPLKGKLGEQVGNPAVSIKDLPYHPKGLSSTPFDDEGVPTTEKFVLENGVLKTFLHNLKTARKEGVEPTGNGFVGGIRPVNLMLMPGEKSFEELLKEMDRGVVITEVEGMHAGANSISGEFSLFAKGYWVENGEIAHGVEDITISGNFLDLLRKIVLVGNDVKVSQHTIAPSVLVEVLDVAGK	not failed
MTASSKRTKKQAILETALQLFVSQGFHGTSTATIAREAGVATGTLFHHFPSKEQLLEQLFLGVKQEFADAIQASVSSRGDLKQDAEQLWFAALTWAMANPLKQAFFQLYSMSPTVEQSVRDQAMHGILGFIAELIRQGQASGELAEYPIELMQDNCHGQYLAATRYFVDHPERWQQAHERSASFALFWNAMAVR	not failed
MELGTPLLLTIAAAGIALLLVLIIRFKIQAFVALLAVSILVAVAAQIPLKDIFTVVTTGVGSTMGKVALLIALGAILGRMIEVSGGVQSLATHFTEKLGAKRVAIALTAVGFLVAIPVFFEVGVIVLVPIVYAFAKIANVHPIKFGLPMAGIMLSIHVAVPPHPGIVAGAGVFGADIGLITLISLIICIPLGFLSYWVASIMNRKDYELLPGVKQQVDEFGSDSLVHVGHDGPGARAIAPPRPGLIMFLIAAPIVQILLGTVGTLTLAKDNYWYGVAAFIGNPFFALLVAVALSFFLLAVRRNWSLKETGEIFEGALPPIASILMVVAAGGVFGEVLRASGIGAALSHTLDSLGLPVIVLGFIISLALRAAQGSATVAIVTTTGLLTSAVMEGGYTPAQIAVIVIAIGFGSLGLSHVTDAGFWTVIRYYGLTVSDGLKTWTVLTTILGLAGFALTYVAWILVGGLGH	failed
MPAGAVRRRLGRRAGGWENGGMSDSSPARPAAPVLDVWCELQCPDCHTALDDVRALRARYGDRLEVRLRHFPLEKHKYAFAAAQAAEEAVAQGRGWPYAEAVLDRVAELDRKGEPFLVEVARELGLDAEEFDTALIDGRHILIVDADQAEGKAIGVTGTPTYVIGGERLDGGKSQDGLRERIEEIADRLLAQPRD	failed
MDVLPLLLLVAGSAAVAGAARRTPVPAPLLLVAAGLIASYIPGVPEYTLDPEVVLPLVLPPLLYTAASDSSYLDLRAQLRPVALLSIGYVLFATLVVGWAAYLLVPGLPLPAALVLGAVVAPPDAVAATAVARRVGLPSRITTILQGESLVNDATAITAYKVALAAAVGEGATWAHGVGEFLLAAVGGVAVGLLLMVPLHWLRTHLKEALLQNTLSLLIPFVAYGLAEWAHASGVLAVVVVALYLGHRNYEVDFATRLQEEAVWKMVAFVLESAVFALIGLQLQVVLKGLGEYRGVDAAWYAVAVFLVVVLARFVWVYPATFLPRLLSARIREREENPTWKAPFIIGWAGMRGVVSLAIAFSIPLTVHGQGKGPFPGRNLILFLTFTTVIGTLVVQGLTLPPLIRLLRLPGRDAQAETLAEANAQAQASRVAELRLNDLLDDERNALPPPLADRLRDVLERRRNAVWERLGAVNPVTGESVDDTYRRLSREMIAAERSVFVRLRNGRYIDDEMLRTLLRRLDLEEAAAFREAT	failed
AHHHHHHGSKMIKVKVIGRNIEKEIEWREGMKVRDILRAVGFNTESAIAKVNGKVVLEDDEVKDGDFVEVIPVVSGG	not failed
MDEIDLRILKILQYNAKYSLDEIAREIRIPKSTLSYRIKKLEKDGVIKGYYAYINPASLNLDYIVITSVKAKYGKNYHVELGNKLAQIPGVWGVYFVLGDNDFIVMARYKTREEFMEKFLERVMSIPEVERTSTQVVVKIIKESPNIVIF	not failed
MTTAQMSVYFFLQAAAILLVCRLVGMLAKRLGQPQVVGEMIAGVMLGPSLFGLLAPGAQAALFPKQTMDVLYVFAQFGVGMYMFLVGTDFRSDHFRARYRSAMSVSLAGIAVPFLLAFAMCPWLINVEGLFSEKAKLMEASLFLGAAIAITAFPMLARIIHERGLATSPLGTLALTAGAFDDASAWCILAVVLASFGGSWGSAYLAIGGGIGYAVFMIFVGRHLLKRLADHVVPGQPLSNSVLAVVLILFCVSAWAMDAIGIHAVFGGFLLGVCLPRGALTEKLREMLQPFVVVLLLPMFFTYSGLKTQLSVLLQPQIMLAGVAILAASFIGKGVACWAAARTTGENNRDAMAIGALMNARGLMELIIINIGLQAGVIEQGLFSVLVLMAILSTLMATPLFNWIMRRHAHVSDAVPSLQSR	failed
